Test results taken from the supplement of paper PMC10567573.

B1: VDR (parent)
chain: VTLELSQLSMLPHLADLVSYSIQK
B2: DLC1 (parent)
chain: RDAIEALCRRLNTLNKCAVMKLEI

Variants of: B1
Experiment: protein stability index of a GFP-peptide fusion (GPS, HEK-293T) (PSI 1-6); higher = more stable
Details: c terminus: a fixed tail appended
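Also: lentivirally expressed fusions sorted by FACS into six bins by GFP to DsRed ratio, PSI derived from sequencing read proportions per bin multiplied by bin number.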

Protein stability index of substitutions, site by site:
Y20: R 3.61
H13: A 2.64
Q7: I 2.06
V18: S 2.94
L3: M 3.15
E4: D 3.44
L5: D 2.1
L8: N 2.35
S19: R 3.25
P12: K 2.72 | M 2.51
S21: E 2.84
Q23: K 3.23
S6: I 2.48
L17: D 1.7

Variants of: B2
Experiment: as above
Details: c terminus: a fixed tail appended

Protein stability index of substitutions, site by site:
N15: I 3.36 | T 1.98 | H 2.39 | G 2.33 | L 3.76 | E 1.44 | Y 1.24 | F 3.09 | K 2.63 | A 3.2 | V 3.72 | P 1.75 | D 3.27 | Q 5.09
I24: F 2.04 | D 1.52 | V 2.45 | L 2.75 | M 2.39 | C 3.03 | N 1.63 | G 1.13 | A 1.18 | Y 1.29 | W 1.66 | Q 1.75 | S 1.91 | E 1.36 | K 1.87 | T 2.21 | P 1.71 | H 1.73 | R 1.5
L22: Y 2.29 | H 1.44 | G 1.5 | D 1.5 | E 1.93 | Q 2.59 | S 1.45 | P 1.43 | M 3.06 | N 1.54 | C 2.69 | I 1.89 | K 1.91 | T 2.54
E23: Y 1.36 | D 1.52 | N 3.12 | C 2.07 | P 2.27 | Q 4.6 | A 2.38 | F 2.3 | W 3.37 | H 2.39 | G 2.23 | K 2.65 | I 1.47
L14: S 3.43 | V 2.93 | P 2.09 | K 1.88 | I 4.47 | Q 2.24 | W 2.22 | Y 3.26 | M 1.49
M20: G 1.85 | R 1.27 | F 3.51 | E 1.49 | N 1.88 | P 2.02 | S 2.64 | Q 1.45 | C 2.27 | D 1.67 | K 1.49 | T 2.35 | A 1.01 | H 3.39
K21: G 1.97 | E 1.73 | S 1.73 | I 2.1 | M 1.69 | T 2.06 | Q 4.24 | Y 2.5 | R 2.88 | P 1.33 | A 2.6 | L 2.53 | C 1.39 | N 1.61
A18: V 3.7 | H 2.23 | P 1.82 | Y 3.01 | E 2.7 | I 3.66 | L 2.58 | R 1.07 | W 2.66 | C 2.83 | Q 2.02 | F 4.02 | D 2.78
V19: T 1.04 | N 1.89 | L 3.2 | A 3.74 | D 2.58 | F 1.62 | Y 2.76 | W 3.62 | I 1.67 | G 1.6 | H 3.85 | Q 1.84
C17: R 1.78 | L 2.35 | K 2.36 | Q 1.42 | D 3.14 | T 3.57 | H 4.06 | Y 3.7 | M 1.63 | S 2.17 | P 1.07 | A 1.16 | I 3.57 | N 1.83 | E 2 | V 4.14
K16: F 3.89 | D 1.76 | C 2.44 | L 1.48 | V 2.29 | G 3.19 | M 2.58 | I 1.93 | W 2.25 | T 2.71 | Q 3.29 | A 2.39 | E 2.45 | N 2.96
